Measurements published in paper PMC4159076 (Cell reports, 2013).

What was measured:
[1] = molecular target: endogenous NPM (human cells) (human (endogenous in HEK293)) (UniProt P06748); test: denaturing gel electrophoresis with western blot
[2] = molecular target: NPM (Flag-NPM / GST-NPM constructs) (UniProt P06748); test: GST pull-down, anti-Flag western blot; conditions: reference: Flag-NPM wild type; sites S125
[3] = molecular target: the molecule itself; test: denaturing gel electrophoresis with western blot

endogenous NPM (human cells) (from UniProt P06748 1-294) (natural protein)
stoichiometry N [1]: 6

NPM (Flag-NPM / GST-NPM constructs) (from UniProt P06748) Flag-NPM S125A
binding against the reference [2]: weaker

B1: nucleophosmin (NPM) (endogenous, mouse cells) (natural protein, UniProt Q61937 1-292, looked up)
chain: MEDSMDMDMSPLRPQNYLFGCELKADKDYHFKVDNDENEHQLSLRTVSLGAGAKDELHIVEAEAMNYEGSPIKVTLATLKMSVQPTVSLGGFEITPPVVLRLKCGSGPVHISGQHLVAVEEDAESEDEDEEDVKLLGMSGKRSAPGGGNKVPQKKVKLDEDDEDDDEDDEDDEDDDDDDFDEEETEEKVPVKKSVRDTPAKNAQKSNQNGKDLKPSTPRSKGQESFKKQEKTPKTPKGPSSVEDIKAKMQASIEKGGSLPKVEAKFINYVKNCFRMTDQEAIQDLWQWRKSL
stoichiometry N [3]: 6
